We go through one molecule from US20230094463A1, “ANTIBODIES THAT DISRUPT THE INTERACTION OF GAL3 AND INSULIN RECEPTOR OR INTEGRINS AND METHODS OF USE THEREOF” (TrueBinding, Inc., priority 2019, published 2023).

Experiment [1] relates to HFD-fed Db/Db (Bks-Db) mice. The experiment in a line: HFD-fed Db/Db mouse model of advanced type II diabetes.
From the text: In order to investigate the effect of therapeutic anti-GAL-3 antibodies on a severe case of type II diabetes, a mouse model using High Fat Diet (HFD)-fed Db/Db mice was implemented. Four-weeks-old male Bks-Db mice (000642) obtained from Jackson lab were fed with 60% kcal HFD (Research Diet, 12492i) for eight weeks. Control animals (male C57BL6/J (000662), Jackson lab) were fed normal chow diet. […] Animals were randomized based on the body composition measured by employing EchoMRI-500™ (EchoMRI). […] Wild type animals were used as a control (Healthy) group. The animals were dosed for twelve weeks. […] The fasting blood glucose was measured as described in Example 15. Briefly, the mice were fasted for 4-6 hours in clean cages with water and no food. Blood from the tail was diluted 2.5 times before using HemoCue Glucose 201 Analyzer and cuvettes (Mercedes Scientific 110706) to measure the blood glucose level.
Experiment [2] relates to DSS-induced IBD C57BL/6J mice. The experiment in a line: DSS mouse model of chronic inflammatory bowel disease. As to conditions: 3% DSS mice, 10 mg/kg or 1 mg/kg. It is filed as in vivo. The procedure: A mouse model of chronic inflammatory bowel disease was implemented to study the effect of Gal-3 antibodies. […] Mice were allowed to rest for one week before initiating the treatment.
Mice were randomized into the four treatment groups: no dextran sulfate sodium salt (DSS), 3% DSS in water+PBS, 3% DSS+mTB001 (10 mg/kg), 3% DSS+mTB001 (1 mg/kg). DSS water mixture was given for five consecutive days followed by seven days of normal water for a total of three DSS cycles and two normal water cycles. Body weight, stool consistency, gross bleeding score, and Hemoccult score (Fisher, SK-61130) were monitored daily. At necropsy, blood, colon, jejunum, ileum, duodenum, and spleen were preserved and flash frozen. Plasma Inflammatory cytokines were measured using Multi-spot Assay Systems (MSD) Proinflammatory Panel 1 (mouse) kit (MSD, K15048D). RT-qPCR was performed on frozen colon samples. Briefly, the colon tissue was disrupted using Qiazol lysis buffer (Qiagen, 79306) and the Qiagen Tissue Lyser II (Qiagen, 85300). RNA was extracted using RNeasy mini kit (Qiagen, 74104). cDNA was synthesized with iScript Reverse Transcription Supermix (BioRad, 1708841) at BioRad C1000 touch thermal cycler (BioRad, 1851138). […]

Experiment [3] deals with high-fat diet fed diabetic C57BL6J mice. Briefly: High-fat diet fed mouse model of type II diabetes. It is filed as in vivo. As to conditions: HFD-fed mice; for liver steatosis (H&E stained liver sections): 10 mg/kg. The text has this: To evaluate whether Gal3-INSR blockade by Gal3-targeted antibodies functionally impacted diabetes biology, a mouse model of type II diabetes was employed. Male C57BL6J mice were purchased from Jackson Lab and fed with high fat diet (HFD, 60% kcal from fat, Research Diet, Catalog #12492i) starting from 7-week old for 8 weeks, 10 or 16 weeks. Age-matched male C57BL6J mice fed with standard chow diet were used as control mice. […] Mice were fed with standard chow diet or HFD ad libitum except when fasted as indicated in the experiments. Glucose tolerance test (GTT) and insulin tolerance test (ITT) were done at 15 weeks and 16 weeks old (8 weeks and 9 weeks after HFD), respectively, to confirm the insulin resistant and glucose intolerant phenotype. For GTT, mice were fasted for 6 hours by transferring mice to clean cage with no food or faeces but with drinking water and then injected with 2 g/kg glucose (Sigma) and blood was drawn to measure glucose levels at 0, 15, 30, 60, 90, and 120 minutes after glucose injection. For ITT, mice were fasted for 6 hours, and then injected with 0.75 IU/kg body weight of Humalin-R (Eli Lilly) intraperitoneally. Blood from the tail was measured for glucose content using HemoCue Glucose 201 Analyzer at 0, 15, 30, 45, 60 minutes. Based on area under the curve (AUC) from ITT, HFD fed mice were randomized into two groups: human IgG4 isotype group and IMT001-4 treated group. At 17 weeks of age, mice were given antibody treatments by intraperitoneal injection twice a week for 5 doses before ITT and GTT were done at 19 weeks old and 20 weeks old. Human IgG4 isotype and IMT001-4 were dosed at 10 mg/kg with 100 μl/mouse and BM was dosed at […] with 100 μl/mouse. Treatments continued until the mice were sacked at 21 weeks old. The mice body weight was monitored one week after the mice arrived at the facility. Body weight was measured once a week using a balance. Mouse blood was collected using cardiac puncture. Liver, gastrocnemius muscle, and posterior subcutaneous white adipose fat were collected and weighed.
To further evaluate the ability of IMT001-4 to impact the pathological sequalae of diabetes, liver sections from animals treated as in FIGS. 3-5 were examined for signs of fat accumulation, e.g., steatosis. Briefly, liver specimens were fixed in 4% paraformaldehyde for 24 hours, placed in 70% EtOH for 3 days, embedded into paraffin and 10 μm sections were cut and mounted to glass slides and stained with hematoxylin and eosin and visualized on a Revolve microscope at 40× magnification. Images were evaluated by ImageJ to quantitate the extent of steatosis.
To further characterize the liver disease observed in histological samples, serum markers of liver dysfunction were evaluated in animals treated as above […]. Briefly, mouse plasma samples were obtained from whole blood sample in lithium heparin collection tubes. 100 μl of serum was dispensed into the rotor of a VetScan VS2 Blood Chemistry Analyzer (Abaxis) through the sample port. ALT levels were determined as per the manufacturer's specification. […] Accordingly, the Gal3-targeted Gal3-INSR blocking antibody, IMT001-4, has utility in reducing serum liver enzymes.

Setting [4] is: 10 mg/kg i.p. twice a week, vs isotype control.

B1: TB001: Gal3-targeted Gal3-INSR blocking anti-Gal3 antibody; IMT001-4 used with human IgG4 isotype control (antibody, V domains shown)
VH: QVQLVQSGSELKKPGASVKVSCKASGYTFTNYGMNWVRQAPGQGLKWMGWINTNTGEPTYVEEFTGRFVFSLETSVSTAYLQISSLKAEDTAVYFCAPYDNFFAYWGQGTTVTVSS
VL: DIVLTQSPLSLPVTPGEPASISCRSSKSLLYKDGKTYLNWFLQKPGQSPQLLIYLMSTHASGVPDRFSGSGSGTDFTLKISRVEAEDVGVYYCQQLVDYPLTFGGGTKLEIK
B1: the “change in levels of fasting blood glucose” value in experiment [1] (compared to PBS-treated groups) was “lack of change”. In addition, the survival result in experiment [1] (dosed once weekly for twelve weeks) is reported as “significantly prolonged survival”. In experiment [2], the “DSS-induced reduction in the colon length” value was “restored”. Further, the “DSS-induced inflammation by circulating levels of IFN-gamma” value in experiment [2] (plasma) was “reduced DSS-induced inflammation”. Moreover, in experiment [3] (10 mg/kg i.p. twice a week, 19 day study), the weight gain entry is “did not gain any appreciable weight”. Besides, the “liver steatosis (H&E stained liver sections)” value is “negligible levels of steatosis” in experiment [3] (10 mg/kg i.p. twice a week) and “absence thereof” in experiment [3] (10 mg/kg i.p. twice a week, listed as IMT001-4 (TB001)). For the same molecule, the “glucose reduction in response to insulin challenge (insulin tolerance test)” value in experiment [3] (setting [4]) is “glucose clearance indistinguishable from non-diabetic mice fed a normal diet”. Also, the “response to glucose challenge (glucose tolerance test)” value in experiment [3] (setting [4]) is on record as “cleared glucose significantly more rapidly”. For the same molecule, in experiment [3] (relative to HFD-fed isotype-control treated mice), the “serum liver enzyme ALT levels” value is “significantly decreased”. For the same molecule, in experiment [3] (relative to isotype-control treated animals), the “liver steatosis by image quantification (ImageJ)” value is recorded as “complete reversion of disease state”.
